Consider 14 molecules from patent US9937235B2, “Lipidated peptides as anti-obesity agents” (USTAV ORGANICKE CHEMIE A BIOCHEMIE AKADEMIE VED CR, V.V.I, priority 2012, dated 2018).

The target in test [1] is T1, human PrRP receptor, GPR10, transfected in CHO cells (human, UniProt P49683 1-370).
T1 construct: whole, on cells; also called human GPR10 receptor; the human receptor GPR10 in CHO cells
T1 sequence (looked up): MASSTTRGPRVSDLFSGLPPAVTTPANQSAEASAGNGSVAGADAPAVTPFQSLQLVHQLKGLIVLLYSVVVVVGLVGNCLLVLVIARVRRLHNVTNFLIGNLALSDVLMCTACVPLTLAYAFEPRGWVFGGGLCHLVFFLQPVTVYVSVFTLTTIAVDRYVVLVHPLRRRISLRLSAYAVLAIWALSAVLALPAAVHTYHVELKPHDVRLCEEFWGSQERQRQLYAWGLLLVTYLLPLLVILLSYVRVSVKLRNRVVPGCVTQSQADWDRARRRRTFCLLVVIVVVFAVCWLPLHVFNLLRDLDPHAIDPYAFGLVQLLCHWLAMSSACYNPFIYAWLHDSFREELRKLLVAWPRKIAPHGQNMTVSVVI
Briefly: competition with 125I-human PrRP31 on CHO cells with transfected human GPR10. Here is the method: CHO cells with transfected human PrRP receptor, GPR10 (Perkin Elmer, USA) were grown on 24-well plates coated with polyethyleneimine. The cells were grown to the optimal density of 40-80 thousand cells per well.
(§1) Plates were incubated for 60 minutes at room temperature. After incubation, the cells were solubilized in 0.1 mol/l solution of NaOH and the radioactivity bound to the cells was counted using a γ-counter. The experiments were performed in duplicate and repeated at least three times.

Test [2] concerns the target T2, rat PrRP receptor in RC-4B/C cells (rat, UniProt Q64121 1-370).
T2 construct: whole, on cells; also called the rat receptor; GPR10
T2 sequence (looked up): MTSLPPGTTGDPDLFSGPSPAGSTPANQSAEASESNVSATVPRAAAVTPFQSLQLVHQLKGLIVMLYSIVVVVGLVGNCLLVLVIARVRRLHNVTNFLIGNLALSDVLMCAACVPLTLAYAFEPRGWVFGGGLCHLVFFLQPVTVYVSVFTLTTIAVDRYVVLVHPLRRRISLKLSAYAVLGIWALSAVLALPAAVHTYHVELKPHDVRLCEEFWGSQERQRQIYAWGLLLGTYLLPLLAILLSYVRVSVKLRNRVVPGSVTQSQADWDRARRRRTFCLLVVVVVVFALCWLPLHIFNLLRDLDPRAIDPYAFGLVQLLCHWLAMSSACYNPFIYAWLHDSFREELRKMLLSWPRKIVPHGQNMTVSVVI
In words: competition with 125I-rat PrRP31 on RC-4B/C cells. Here is the method: The rat pituitary cell line RC-4B/C (ATCC, Manassas, USA) was grown on 24-well plates which had their bottom coated with polyethyleneimine. The cells were grown to the optimal density of 300-450 thousand per well.
as §1
For evaluation of competitive binding experiments, the program Graph Pad Prism Software (San Diego, Calif., USA) was used. A method of nonlinear regression assuming one-site binding was used.

Where no end group is shown, it is not given here. [ ]: non-standard residue; d: D form. The star is where a group is joined. 1Nal = N[C@@H](Cc1cccc2ccccc12)C(=O)O; Palmitoyl = CCCCCCCCCCCCCCCC(=O)*; Myristoyl = CCCCCCCCCCCCCC(=O)*; Lauroyl = CCCCCCCCCCCC(=O)*; NMeA = CN[C@@H](C)C(=O)O; Nle = CCCC[C@H](N)C(=O)O

B1: analog no. 49 (peptide)
peptide: Myristoyl-QHSMETRTPDINPAWYTGRGIRPVGRF-NH2
SMILES: CCCCCCCCCCCCCC(=O)N[C@@H](CCC(N)=O)C(=O)N[C@@H](Cc1c[nH]cn1)C(=O)N[C@@H](CO)C(=O)N[C@@H](CCSC)C(=O)N[C@@H](CCC(=O)O)C(=O)N[C@H](C(=O)N[C@@H](CCCNC(=N)N)C(=O)N[C@H](C(=O)N1CCC[C@H]1C(=O)N[C@@H](CC(=O)O)C(=O)N[C@H](C(=O)N[C@@H](CC(N)=O)C(=O)N1CCC[C@H]1C(=O)N[C@@H](C)C(=O)N[C@@H](Cc1c[nH]c2ccccc12)C(=O)N[C@@H](Cc1ccc(O)cc1)C(=O)N[C@H](C(=O)NCC(=O)N[C@@H](CCCNC(=N)N)C(=O)NCC(=O)N[C@H](C(=O)N[C@@H](CCCNC(=N)N)C(=O)N1CCC[C@H]1C(=O)N[C@H](C(=O)NCC(=O)N[C@@H](CCCNC(=N)N)C(=O)N[C@@H](Cc1ccccc1)C(N)=O)C(C)C)[C@@H](C)CC)[C@@H](C)O)[C@@H](C)CC)[C@@H](C)O)[C@@H](C)O
notes: lipidated shortened PrRP31 analog
Usually Ki stands for the equilibrium dissociation constant of an inhibitor or competing ligand from its target. Read a low Ki as a stronger hold on the target. For the molecule B1, the values for the Ki in test [1] and in test [2] were 6.93 nM and 0.37 nM, respectively.

B2: analog no. 46 (peptide)
peptide: [Nle]ETRTPDINPAWYTGRGIRPVGRF-NH2
modifications: N-terminus assumed
SMILES: CCCC[C@H](N)C(=O)N[C@@H](CCC(=O)O)C(=O)N[C@H](C(=O)N[C@@H](CCCNC(=N)N)C(=O)N[C@H](C(=O)N1CCC[C@H]1C(=O)N[C@@H](CC(=O)O)C(=O)N[C@H](C(=O)N[C@@H](CC(N)=O)C(=O)N1CCC[C@H]1C(=O)N[C@@H](C)C(=O)N[C@@H](Cc1c[nH]c2ccccc12)C(=O)N[C@@H](Cc1ccc(O)cc1)C(=O)N[C@H](C(=O)NCC(=O)N[C@@H](CCCNC(=N)N)C(=O)NCC(=O)N[C@H](C(=O)N[C@@H](CCCNC(=N)N)C(=O)N1CCC[C@H]1C(=O)N[C@H](C(=O)NCC(=O)N[C@@H](CCCNC(=N)N)C(=O)N[C@@H](Cc1ccccc1)C(N)=O)C(C)C)[C@@H](C)CC)[C@@H](C)O)[C@@H](C)CC)[C@@H](C)O)[C@@H](C)O
notes: shortened PrRP31 analog
For the molecule B2, the results for the Ki in test [1] and in test [2] were 3.44 nM and 2.94 nM, respectively.

B3: analog no. 47 (peptide)
peptide: Myristoyl-[Nle]ETRTPDINPAWYTGRGIRPVGRF-NH2
SMILES: CCCCCCCCCCCCCC(=O)N[C@@H](CCCC)C(=O)N[C@@H](CCC(=O)O)C(=O)N[C@H](C(=O)N[C@@H](CCCNC(=N)N)C(=O)N[C@H](C(=O)N1CCC[C@H]1C(=O)N[C@@H](CC(=O)O)C(=O)N[C@H](C(=O)N[C@@H](CC(N)=O)C(=O)N1CCC[C@H]1C(=O)N[C@@H](C)C(=O)N[C@@H](Cc1c[nH]c2ccccc12)C(=O)N[C@@H](Cc1ccc(O)cc1)C(=O)N[C@H](C(=O)NCC(=O)N[C@@H](CCCNC(=N)N)C(=O)NCC(=O)N[C@H](C(=O)N[C@@H](CCCNC(=N)N)C(=O)N1CCC[C@H]1C(=O)N[C@H](C(=O)NCC(=O)N[C@@H](CCCNC(=N)N)C(=O)N[C@@H](Cc1ccccc1)C(N)=O)C(C)C)[C@@H](C)CC)[C@@H](C)O)[C@@H](C)CC)[C@@H](C)O)[C@@H](C)O
notes: as for B1
On to B3, for which the Ki in test [1] came out at 5.48 nM; in test [2] it was 0.45 nM.

For the molecule QHSMETRTPDINPAWYTGRGIRPVGRF-NH2 (shortened PrRP31 analog) [analog no. 48], the values for the Ki in test [1] and in test [2] were 5.92 nM and 2.61 nM, respectively.

On to TPDINPAWYTGRGARPFGRF-NH2 [analog no. 42], for which the results for the inhibition constant (Ki) in test [1] and in test [2] were 583 nM and 655 nM, respectively.

B4: analog no. 43 (peptide)
peptide: Myristoyl-TPDINPAWYTGRGARPFGRF-NH2
SMILES: CCCCCCCCCCCCCC(=O)N[C@H](C(=O)N1CCC[C@H]1C(=O)N[C@@H](CC(=O)O)C(=O)N[C@H](C(=O)N[C@@H](CC(N)=O)C(=O)N1CCC[C@H]1C(=O)N[C@@H](C)C(=O)N[C@@H](Cc1c[nH]c2ccccc12)C(=O)N[C@@H](Cc1ccc(O)cc1)C(=O)N[C@H](C(=O)NCC(=O)N[C@@H](CCCNC(=N)N)C(=O)NCC(=O)N[C@@H](C)C(=O)N[C@@H](CCCNC(=N)N)C(=O)N1CCC[C@H]1C(=O)N[C@@H](Cc1ccccc1)C(=O)NCC(=O)N[C@@H](CCCNC(=N)N)C(=O)N[C@@H](Cc1ccccc1)C(N)=O)[C@@H](C)O)[C@@H](C)CC)[C@@H](C)O
Turning to B4, the Ki amounted to 8.47 nM in test [1] and 7.21 nM in test [2].

B5: analog no. 54 (peptide)
peptide: Lauroyl-TPDINPAWYASRGIRPVGRF-NH2
SMILES: CCCCCCCCCCCC(=O)N[C@H](C(=O)N1CCC[C@H]1C(=O)N[C@@H](CC(=O)O)C(=O)N[C@H](C(=O)N[C@@H](CC(N)=O)C(=O)N1CCC[C@H]1C(=O)N[C@@H](C)C(=O)N[C@@H](Cc1c[nH]c2ccccc12)C(=O)N[C@@H](Cc1ccc(O)cc1)C(=O)N[C@@H](C)C(=O)N[C@@H](CO)C(=O)N[C@@H](CCCNC(=N)N)C(=O)NCC(=O)N[C@H](C(=O)N[C@@H](CCCNC(=N)N)C(=O)N1CCC[C@H]1C(=O)N[C@H](C(=O)NCC(=O)N[C@@H](CCCNC(=N)N)C(=O)N[C@@H](Cc1ccccc1)C(N)=O)C(C)C)[C@@H](C)CC)[C@@H](C)CC)[C@@H](C)O
In test [1], B5 had a Ki of 2.41 nM.

Turning to SRAHQHS[Nle]ETRTPDINPAWYTGRGIRPVGRF-NH2 [analog no. 14], the Ki in test [1] worked out at 1.92 nM; in test [2], 1.28 nM.

On to SRAHQHS[Nle]ETRTPDINPAWYTGRGIRPVGR[1Nal]-NH2 [analog no. 21], for which the Ki in test [1] was determined as 34.5 nM; in test [2], 102 nM.

Take Myristoyl-SRAHQHS[Nle]ETRTPDINPAWYTGRGIRPVGR[1Nal]-NH2 [analog no. 22]: the values for the Ki in test [1] and in test [2] were 1.33 nM and 3.96 nM, respectively.

On to Palmitoyl-SRAHQHS[Nle]ETRTPDINPAWYTGRGIRPVGR[1Nal]-NH2 [analog no. 23], for which the Ki in test [1] was determined as 4.27 nM; in test [2], 2.17 nM.

B6: analog no. 40 (peptide)
peptide: TPDINPAWY[NMeA]SRGIRPVGRF-NH2
modifications: N-terminus assumed
SMILES: CC[C@H](C)[C@H](NC(=O)CNC(=O)[C@H](CCCNC(=N)N)NC(=O)[C@H](CO)NC(=O)[C@H](C)N(C)C(=O)[C@H](Cc1ccc(O)cc1)NC(=O)[C@H](Cc1c[nH]c2ccccc12)NC(=O)[C@H](C)NC(=O)[C@@H]1CCCN1C(=O)[C@H](CC(N)=O)NC(=O)[C@@H](NC(=O)[C@H](CC(=O)O)NC(=O)[C@@H]1CCCN1C(=O)[C@@H](N)[C@@H](C)O)[C@@H](C)CC)C(=O)N[C@@H](CCCNC(=N)N)C(=O)N1CCC[C@H]1C(=O)N[C@H](C(=O)NCC(=O)N[C@@H](CCCNC(=N)N)C(=O)N[C@@H](Cc1ccccc1)C(N)=O)C(C)C
Turning to B6, the Ki in test [1] is 8.72 nM; in test [2], 49.4 nM.

For TPDINPAWYASRPFRPVGRF-NH2 [analog no. 44], the Ki in test [1] is 1.73 nM; in test [2], 2.14 nM.

B7: analog no. 45 (peptide)
peptide: Myristoyl-TPDINPAWYASRPFRPVGRF-NH2
SMILES: CCCCCCCCCCCCCC(=O)N[C@H](C(=O)N1CCC[C@H]1C(=O)N[C@@H](CC(=O)O)C(=O)N[C@H](C(=O)N[C@@H](CC(N)=O)C(=O)N1CCC[C@H]1C(=O)N[C@@H](C)C(=O)N[C@@H](Cc1c[nH]c2ccccc12)C(=O)N[C@@H](Cc1ccc(O)cc1)C(=O)N[C@@H](C)C(=O)N[C@@H](CO)C(=O)N[C@@H](CCCNC(=N)N)C(=O)N1CCC[C@H]1C(=O)N[C@@H](Cc1ccccc1)C(=O)N[C@@H](CCCNC(=N)N)C(=O)N1CCC[C@H]1C(=O)N[C@H](C(=O)NCC(=O)N[C@@H](CCCNC(=N)N)C(=O)N[C@@H](Cc1ccccc1)C(N)=O)C(C)C)[C@@H](C)CC)[C@@H](C)O
Regarding B7, the Ki in test [1] is 0.58 nM; in test [2], 0.84 nM.
